Target: rcan1_mouse Rcan1 (UniProt Q9JHG6)

Substance: Fragile X messenger ribonucleoprotein 1 (Mus musculus) (from UniProt P35922) S499A
- effect of a mutation on the interaction: disrupting interaction

Reference: IntAct's records for PubMed 22863780
